Measurements taken from US20240228562A1, “NOVEL LIPOCALIN MUTEINS SPECIFIC FOR CONNECTIVE TISSUE GROWTH FACTOR (CTGF)” (PIERIS PHARMACEUTICALS GMBH, priority 2021, published 2024).

T1: huNOV (Homo sapiens, UniProt P48745)
T1 sequence (P48745 32-357): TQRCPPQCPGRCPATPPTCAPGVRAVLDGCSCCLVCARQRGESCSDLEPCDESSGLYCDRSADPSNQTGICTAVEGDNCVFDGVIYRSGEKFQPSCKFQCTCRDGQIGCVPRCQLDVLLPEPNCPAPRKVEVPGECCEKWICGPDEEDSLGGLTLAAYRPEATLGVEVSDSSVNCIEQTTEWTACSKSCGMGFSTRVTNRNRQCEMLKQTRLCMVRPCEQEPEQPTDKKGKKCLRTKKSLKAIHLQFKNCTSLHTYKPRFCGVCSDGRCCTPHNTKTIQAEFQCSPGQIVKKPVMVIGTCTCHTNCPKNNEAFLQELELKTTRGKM

T2: huCYR61 (Homo sapiens, UniProt O00622)
T2 sequence (O00622 25-381): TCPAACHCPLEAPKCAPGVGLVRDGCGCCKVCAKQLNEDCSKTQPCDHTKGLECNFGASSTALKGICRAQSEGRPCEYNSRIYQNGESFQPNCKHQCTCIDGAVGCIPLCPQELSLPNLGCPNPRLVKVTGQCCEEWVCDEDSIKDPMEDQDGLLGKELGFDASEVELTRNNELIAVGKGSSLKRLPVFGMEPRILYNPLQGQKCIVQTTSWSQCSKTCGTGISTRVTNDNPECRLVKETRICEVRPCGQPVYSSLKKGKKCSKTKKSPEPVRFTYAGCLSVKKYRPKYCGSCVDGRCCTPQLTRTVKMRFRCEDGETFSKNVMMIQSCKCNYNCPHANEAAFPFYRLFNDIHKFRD

T3: huWISP-2 (Homo sapiens, UniProt O76076)
T3 sequence (O76076 24-250): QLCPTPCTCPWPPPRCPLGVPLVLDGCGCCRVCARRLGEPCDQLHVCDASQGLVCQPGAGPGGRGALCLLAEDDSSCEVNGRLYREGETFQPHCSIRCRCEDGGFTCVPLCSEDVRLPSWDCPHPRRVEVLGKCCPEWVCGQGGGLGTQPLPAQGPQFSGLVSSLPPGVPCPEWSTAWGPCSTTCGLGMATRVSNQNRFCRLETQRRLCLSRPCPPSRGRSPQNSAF

T4: huWISP-1 (Homo sapiens, UniProt O95388)
T4 sequence (O95388 23-367): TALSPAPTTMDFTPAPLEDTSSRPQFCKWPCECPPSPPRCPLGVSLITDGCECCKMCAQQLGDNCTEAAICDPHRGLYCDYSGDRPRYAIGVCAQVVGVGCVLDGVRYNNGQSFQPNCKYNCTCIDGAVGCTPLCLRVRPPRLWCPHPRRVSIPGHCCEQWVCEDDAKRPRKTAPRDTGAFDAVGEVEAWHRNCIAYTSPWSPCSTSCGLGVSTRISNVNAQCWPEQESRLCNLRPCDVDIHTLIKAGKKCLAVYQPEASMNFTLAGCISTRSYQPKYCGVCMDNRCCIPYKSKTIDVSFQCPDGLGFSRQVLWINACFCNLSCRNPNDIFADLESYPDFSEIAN


Columns and labels:
huNOV = target: T1, huNOV; assay: Specificity ELISA (CCN proteins), huNOV; format: binding; conditions: coated 1 μg/ml; assessed when human CTGF signal approached saturation
Experimental: (§1) Binding of muteins to closely related proteins of CTGF was tested by an ELISA assay. In detail, a 384-well plate suitable for fluorescence measurements (Greiner FLUOTRAC™ 600, black flat bottom, high-binding) was coated with 20 μl of human CTGF or the other members of the CCN protein family at a concentration of 1 μg/ml in PBS over night at 4° C. After washing with PBS with 0.05% Tween 20, wells were blocked with 100 μl blocking buffer containing 0.1% Tween 20 and 2% BSA (PBS-T/BSA) for 1 h at room temperature. 20 μl of serially diluted muteins starting at 1000 nM were incubated in PBS-T/BSA for 1 h at room temperature (RT).
(§2) The residual supernatants were discarded and 20 μl HRP-labeled anti-NGAL or anti-Strep-Tag antibody was added at a predetermined optimal concentration in PBS-T/BSA and incubated for 1 h at RT. After washing, 20 μl fluorogenic HRP substrate (QuantaBlu, Thermo) was added to each well, and the reaction was allowed to proceed for 2 to 60 minutes. The fluorescence intensity of every well on the plate was read using a fluorescence microplate reader (Tecan). When the signal for human CTGF approached saturation, the cross reactivity to the other proteins was assessed.

huCYR61 = target: T2, huCYR61; assay: Specificity ELISA (CCN proteins), huCYR61; format: binding; conditions: coated 1 μg/ml; assessed when human CTGF signal approached saturation
Experimental: as §1, §2

huWISP-2 = target: T3, huWISP-2; assay: Specificity ELISA (CCN proteins), huWISP-2; format: binding; conditions: coated 1 μg/ml; assessed when human CTGF signal approached saturation
Experimental: as §1, §2

huWISP-1 = target: T4, huWISP-1; assay: Specificity ELISA (CCN proteins), huWISP-1; format: binding; conditions: coated 1 μg/ml; assessed when human CTGF signal approached saturation
Experimental: as §1, §2

[1] = Thermal stability assessment by nanoDSC; format: physicochemical; conditions: 1 mg/mL in PBS, scan 25-100° C. at 1° C./min; for TM: major transition
Summary of the method: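 CTGF-specific lipocalin muteins at 1 mg/mL in PBS scanned from 25 to 100° C at 1° C/min by capillary nano-DSC. Where several transitions occur, the Tm of the major unfolding event is reported, along with onset temperature. Some muteins were expressed in E. coli, others in CHO cells.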

Molecule | ELISA binding to huNOV (huNOV) | ELISA binding to huCYR61 (huCYR61) | ELISA binding to huWISP-2 (huWISP-2) | ELISA binding to huWISP-1 (huWISP-1) | TM [1] | ONSET MELTING [1]
SEQ ID NO: 7: parent CTGF-binding hNGAL lipocalin mutein (protein, lipocalin mutein) QDSTSDLIPAPPLSKVPLQQNFQDNQFHGKWYVVGLAGNYGLRTDKRPSKMFATIYELKEDKSYDVTSVRFEQERCHYTIRTFVPGSQPGEFTTGSIKSRPGQTSSLVRVVSTNYNQHAMVFFKSVIQNREYFAITLYGRTKELTSELKENFIRFSKSLGLPENHIVFPVPIDQCIDG | No binding | No binding | No binding | No binding | 65 °C | –
SEQ ID NO: 3: parent CTGF-binding hNGAL lipocalin mutein (protein, lipocalin mutein) QDSTSDLIPAPPLSKVPLQQNFQDNQFHGKWYVVGRAGNNRLREDKDPPKMWATIYELKEDKSYNVTHVHFMTKKCRYIIDTFVPGSQPGEFTLGAIKSGPGMTSPLVRIVSTNYNQHAMVFFKWVNQNREWFTITLYGRTKELTSELKENFIRFSKSLGLPENHIVFPVPIDQCIDG | No binding | No binding | No binding | No binding | 58 °C | –
SEQ ID NO: 23: optimized CTGF-binding hNGAL lipocalin mutein (protein, lipocalin mutein) QDSTSDLIPAPPLSKVPLQQNFQDNQFQGKWYVVGVAGNAILRPDKQPAKMFATIYELKEDKSYDVTSVRFEAKSCKYTIKTFVPGSQPGEFTSGQIKSAPGQTSTLVRVVSTNYNQHAMVFFKHVSQNREIFVITLYGRTKELTSELKENFIRFSKSLGLPENHIVFPVPIDQCIDG | No binding | No binding | No binding | No binding | 71 °C | 55 °C
SEQ ID NO: 9: parent CTGF-binding hNGAL lipocalin mutein (protein, lipocalin mutein) QDSTSDLIPAPPLSKVPLQQNFQDNQFHGKWYVVGLAGNKILRIDKQPAKMFATIYELKEDKSYDVTSVRFEARSCSYTIKTFVPGSQPGEFTAGNIKSAPGQTSTLVRVVSTNYNQHAMVFFKHVSQNRETFVITLYGRTKELTSELKENFIRFSKSLGLPENHIVFPVPIDQCIDG | No binding | No binding | No binding | No binding | 64 °C | –
SEQ ID NO: 15: optimized CTGF-binding hNGAL lipocalin mutein (protein, lipocalin mutein) QDSTSDLIPAPPLSKVPLQQNFQDNQFQGKWYVVGLAGNAILREDKQPAKMFATIYELKEDKSYDVTSVRFEAKSCKYTIKTFVPGSQPGEFTAGYIKSAPGQTSTLVRVVSTNYNQHAMVFFKHVTQNREIFVITLYGRTKELTSELKENFIRFSKSLGLPENHIVFPVPIDQCIDG | No binding | No binding | No binding | No binding | 73 °C | 59 °C
SEQ ID NO: 29: parent CTGF-binding hNGAL lipocalin mutein (protein, lipocalin mutein) QDSTSDLIPAPPLSKVPLQQNFQDNQFHGKWYVVGWAGNIKLREDKDPFKMSATIYELKEDKSYNVTEVVFEQKKCHYIIKTFVPGSQPGEFTLGDIKSPPGETSSLVRVVSTNYNQHAMVFFKKVFQNREFFWITLYGRTKELTSELKENFIRFSKSLGLPENHIVFPVPIDQCIDG | No binding | No binding | No binding | No binding | 76 °C | –
SEQ ID NO: 74: fusion protein comprising two CTGF-binding lipocalin muteins (protein, fusion protein) QDSTSDLIPAPPLSKVPLQQNFQDNQFQGKWYVVGLAGNAILREDKQPAKMFATIYELKEDKSYDVTSVRFEAKSCKYTIKTFVPGSQPGEFTAGYIKSAPGQTSTLVRVVSTNYNQHAMVFFKHVTQNREIFVITLYGRTKELTSELKENFIRFSKSLGLPENHIVFPVPIDQCIDGGGGGSGGGGSGGGGSQDSTSDLIPAPPLSKVPLQQNFQDNQFQGKWYVVGWAGNVKLREDKQPQKMSATIYELKEDKSYDVTEVVFEQKKCHYIIKTFVPGSQPGEFTAGDIKSPPGYTSSLVRVVSTNYNQHAMVFFKKVSQNREFFWITLYGRTKELTSELKENFIRFSKSLGLPENHIVFPVPIDQCIDG | No binding | No binding | No binding | No binding | 72 °C | 62 °C
SEQ ID NO: 25: parent CTGF-binding hNGAL lipocalin mutein (protein, lipocalin mutein) QDSTSDLIPAPPLSKVPLQQNFQDNQFHGKWYVVGMAGNFRLREDKDPSKMGATIYELKEDKSYNVTQVQFDDKKCLYVIETFVPGSQPGEFTLGAIKSFPGFTSQLVRVVSTNYNQHAMVFFKKVYQNREVFWITLYGRTKELTSELKENFIRFSKSLGLPENHIVFPVPIDQCIDG | No binding | No binding | No binding | No binding | 66 °C | –
